Data on three molecules can be found in patent US20170240883A1, “CYCLIC PEPTIDES EXPRESSED BY A GENETIC PACKAGE” (Miti Biosystems GmbH, priority 2014, published 2017).

The assay addresses T1, Human Plasma Kallikrein (Homo sapiens, UniProt P03952).
T1 construct: purchased Molecular Innovations, Inc, USA
The assay can be described thus: Phage selection of leader-free SynLib1 library modified by Celf ProcM enzyme-leader fusions on biotinylated kallikrein (output titre). It counts as binding. The following applies: for difference in titre using 9.75 nM kallikrein and using 0 nM kallikrein: R3. As for the experimental part: Human Plasma Kallikrein (Molecular Innovations, Inc, USA) at 1.15 mg/ml (13 μM) solution in 4 mM acetate, 150 mM NaCl, pH 5.3 was biotinylated using NHS-PEG4-Biotin from the EZ-link micro-PEO4-biotinylation kit (Pierce Biotechnology, USA). 680 μl of water was added to the contents of the pre-weighed vial of biotinylation reagent to make a 5 mM solution. 1 μl of this solution was added to 100 μl of the kallikrein solution. This was incubated at RT for 1 hour prior to the separation of the biotinylated protein from the unreacted biotin, using a 2 ml Spin Desalting column (Pierce Biotechnology, USA). The volume of the kallikrein was made up to 350 μl with PBS (Formedium Ltd, UK) and was loaded onto the spin column which had been equilibrated with PBS (as per the manufacturer's instructions). When this solution had been absorbed into the column matrix, a further 50 μl of PBS was added on top and the column was spun in a centrifuge at 1000 g for 2 min. 395 μl of solution was collected, making the concentration of the biotinylated kallikrein about 3.25 μM.
150 μl of stock leader-free SynLib1 library (4.5e11 phage per μl) was added to 1850 μl of TE buffer, 2 μl 1 M TCEP (Melford Biolaboratories Ltd, UK) and incubated at RT for 20 minutes to reduce the peptides on the phage. 400 μl of 2.5 M NaCl, 20% w/v PEG 8000 was added, incubated at RT for five minutes and the precipitated phages were collected by centrifugation at 15000 g for five minutes. The supernatant was discarded and the phages were resuspended in 150 μl of 25 mM Tris pH 7.5 (Sigma Aldrich, Austria), 1 μM TCEP.
Selections are performed by removing streptavidin-binding clones by pre-exposing the library to streptavidin resin, which is then discarded, mixing the library with decreasing concentrations of biotinylated target for an hour at each round of selection, capture of the biotinylated target and thereby any phage binding the target with magnetic streptavidin resin followed by extensive washing of the resin. Finally, the washed resin has the phage eluted from the target by exposure to a low pH solution, neutralisation of the solution and infection of E. coli by the eluted phage.
Round 1 (R1) of the selection was performed by adding 50 μl of LodeStars streptavidin resin (Agilent Technologies, USA), from which the liquid had been removed by magnetic capture, to the modified phage solution for 30 minutes to capture the peptide sequence that bind to streptavidin (deselection). The resin was captured magnetically and the phage-containing supernatant was collected and made up to 500 μl with 25 mM Tris pH 7.5, 0.05% Tween 20 (Melford Biolaboratories Ltd, UK). Biotinylated kallikrein was added to 100 nM, and mixed at RT for 1 hour prior to processing on a KingFisher mL (Thermo Fisher, Austria) magnetic particle washer. The processing involved the KingFisher transferring 25 μl of streptavidin resin to the phage solution and mixing for five minutes. The resin/phage were then collected and washed in 8×1 ml of PBS+0.05% Tween 20 (PBST). The resin was then mixed in 50 μl of 50 mM glycine pH 2.2 (Melford Biolaboratories Ltd, UK) for five minutes to elute the phage and the resin was removed. The phage-containing supernatant was neutralised with 10 μl of 1 M Tris pH 8.0 and added to 1 ml of TG1 cells at A600 of 0.6 followed by incubation at 37° C., 250 rpm for 1 hour. The phage titre was determination by adding 4 μl of culture to 96 μl of water, which was used to make five, 10-fold dilutions; 10 μl from each of these was spotted onto an LB+tetracycline agar plate. The remainder of the culture was made up to 11 ml with 2TY plus tetracycline and incubated at 37° C., 250 rpm overnight.
10 ml of overnight culture was reduced with 10 μl of 1 M TCEP for 20 min at RT followed by removal of the cells by centrifugation at 15000 g for five minutes. […]

T1 sequence (P03952 20-638): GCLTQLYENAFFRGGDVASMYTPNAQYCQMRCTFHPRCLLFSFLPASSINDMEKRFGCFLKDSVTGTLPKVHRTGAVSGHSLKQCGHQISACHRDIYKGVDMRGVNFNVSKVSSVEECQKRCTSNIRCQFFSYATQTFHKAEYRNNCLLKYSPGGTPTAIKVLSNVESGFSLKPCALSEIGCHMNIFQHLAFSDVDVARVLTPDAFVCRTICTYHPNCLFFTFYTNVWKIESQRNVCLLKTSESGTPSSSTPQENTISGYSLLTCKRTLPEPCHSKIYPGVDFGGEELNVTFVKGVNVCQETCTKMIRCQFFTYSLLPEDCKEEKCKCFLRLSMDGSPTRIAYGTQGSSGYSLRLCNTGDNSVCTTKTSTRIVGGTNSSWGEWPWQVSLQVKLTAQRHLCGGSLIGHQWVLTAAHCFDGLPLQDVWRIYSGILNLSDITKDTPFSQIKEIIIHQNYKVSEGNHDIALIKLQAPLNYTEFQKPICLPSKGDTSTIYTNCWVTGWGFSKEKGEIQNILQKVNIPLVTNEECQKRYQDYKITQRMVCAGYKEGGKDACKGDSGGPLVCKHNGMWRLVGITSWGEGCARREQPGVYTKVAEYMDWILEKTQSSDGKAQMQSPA

B1: CelfProcM15: C-terminal leaderA4.3 ProcM enzyme-leader fusion, 15-pair linker, used to modify leader-free SynLib1 (protein)
chain: MSEEQLKAFIAKVQADTSLQEQLKAEGADVVAIAKAAGFTITTEDLNSHRQNLTDDELEGVAGGSASGSGSGSAMESPSSWKTSWLAAIAPDEPHKFDRRLEWDELSEENFFAALNSEPASLEEDDPCFEEALQDALEALKAAWDLPLLPVDNNLNRPFVDVWWPIRCHSAESLRQSFVSDSAGLADEIFDQLADSLLDRLCALGDQVLWEAFNKERTPGTMLLAHLGAAGDGSGPPVREHYERFIQSHRRNGLAPLLKEFPVLGRLIGTVLSLWFQGSVEMLQRICADRTVLQQCFAIPCGHHLKTVKQGLSDPHRGGRAVAVLEFADPNSTANSSMHVVYKPKDMAVDAAYQATLADLNTHSDLSPLRTLAIHNGNGYGYMEHVVHHLCANDKELTNFYFNAGRLTALLHLLGCTDCHHENLIACGDQLLLIDTETLLEADLPDHISDASSTTAQPKPSSLQKQFQRSVLRSGLLPQWMFLGESKLAIDISALGMSPPNKPERIALGWLGFNSDGMMPGRVSQPVEIPTSLPVGIGEVNPFDRFLEDFCDGFSMQSEALIKLRNRWLDVNGVLAHFAGLPRRIVLRATRVYFTIQRQQLEPTALRSPLAQALKLEQLTRSFLLAESKPLHWPIFAAEVKQMQHLDIPFFTHLIDADALQLGGLEQELPGFIQTSGLAAAYERLRNLDTDEIAFQLRLIRGAVEARELHTTPESSPTLPPPATPEALMSSSAETSLEAAKRIAHRLLELAIRDSQGQVEWLGMDLGADGESFSFGPVGLSLYGGSIGIAHLLQRLQAQQVSLMDADAIQTAILQPLVGLVDQPSDDGRRRWWRDQPLGLSGCGGTLLALTLQGEQAMANSLLAAALPRFIEADQQLDLIGGCAGLIGSLVQLGTESALQLALRAGDHLIAQQNEEGAWSSSSSQPGLLGFSHGTAGYAAALAHLHAFSADERYRTAAAAALAYERARFNKDAGNWPDYRSIGRDSDSDEPSFMASWCHGAPGIALGRACLWGTALWDEECTKEIGIGLQTTAAVSSVSTDHLCCGSLGLMVLLEMLSAGPWPIDNQLRSHCQDVAFQYRLQALQRCSAEPIKLRCFGTKEGLLVLPGFFTGLSGMGLALLEDDPSRAVVSQLISAGLWPTESASGSGSGSGSGSGSGSGSGSTSGSGSGSAMSEEQLKAFIAKVQADTSLQEQLKAEGADVVAIAKAAGFTITTEDLNSHRQNLTDDELEGVAGG
modifications: Enzyme-Leader-Fusion
On to B1, for which the “difference in titre using 9.75 nM kallikrein and using 0 nM kallikrein” value (“difference in titre” for short) is 36 fold. In addition, where the note is “R1, 100 nM kallikrein”, the “output titre (number of phages eluted at the end of the round)” value (“output titre” below) was found to be 2.7e6. In addition, the “output titre” value (R2, 33 nM kallikrein) is 2.7e5. The “output titre” value (R3, 0 nM kallikrein) was 2.7e4. In addition, where the note is “R3, 9.75 nM kallikrein”, the “output titre” value is listed as 9.5e5.

B2: CelfProcM5: C-terminal leaderA4.3 ProcM enzyme-leader fusion, 5-pair linker, used to modify leader-free SynLib1 (protein)
chain: MSEEQLKAFIAKVQADTSLQEQLKAEGADVVAIAKAAGFTITTEDLNSHRQNLTDDELEGVAGGSASGSGSGSAMESPSSWKTSWLAAIAPDEPHKFDRRLEWDELSEENFFAALNSEPASLEEDDPCFEEALQDALEALKAAWDLPLLPVDNNLNRPFVDVWWPIRCHSAESLRQSFVSDSAGLADEIFDQLADSLLDRLCALGDQVLWEAFNKERTPGTMLLAHLGAAGDGSGPPVREHYERFIQSHRRNGLAPLLKEFPVLGRLIGTVLSLWFQGSVEMLQRICADRTVLQQCFAIPCGHHLKTVKQGLSDPHRGGRAVAVLEFADPNSTANSSMHVVYKPKDMAVDAAYQATLADLNTHSDLSPLRTLAIHNGNGYGYMEHVVHHLCANDKELTNFYFNAGRLTALLHLLGCTDCHHENLIACGDQLLLIDTETLLEADLPDHISDASSTTAQPKPSSLQKQFQRSVLRSGLLPQWMFLGESKLAIDISALGMSPPNKPERIALGWLGFNSDGMMPGRVSQPVEIPTSLPVGIGEVNPFDRFLEDFCDGFSMQSEALIKLRNRWLDVNGVLAHFAGLPRRIVLRATRVYFTIQRQQLEPTALRSPLAQALKLEQLTRSFLLAESKPLHWPIFAAEVKQMQHLDIPFFTHLIDADALQLGGLEQELPGFIQTSGLAAAYERLRNLDTDEIAFQLRLIRGAVEARELHTTPESSPTLPPPATPEALMSSSAETSLEAAKRIAHRLLELAIRDSQGQVEWLGMDLGADGESFSFGPVGLSLYGGSIGIAHLLQRLQAQQVSLMDADAIQTAILQPLVGLVDQPSDDGRRRWWRDQPLGLSGCGGTLLALTLQGEQAMANSLLAAALPRFIEADQQLDLIGGCAGLIGSLVQLGTESALQLALRAGDHLIAQQNEEGAWSSSSSQPGLLGFSHGTAGYAAALAHLHAFSADERYRTAAAAALAYERARFNKDAGNWPDYRSIGRDSDSDEPSFMASWCHGAPGIALGRACLWGTALWDEECTKEIGIGLQTTAAVSSVSTDHLCCGSLGLMVLLEMLSAGPWPIDNQLRSHCQDVAFQYRLQALQRCSAEPIKLRCFGTKEGLLVLPGFFTGLSGMGLALLEDDPSRAVVSQLISAGLWPTESASGSGSGSAMSEEQLKAFIAKVQADTSLQEQLKAEGADVVAIAKAAGFTITTEDLNSHRQNLTDDELEGVAGG
modifications: Enzyme-Leader-Fusion
Regarding B2, the “difference in titre” value worked out at 10 fold. In addition, the “output titre” value (R1, 100 nM kallikrein) was found to be 6.4e5. Where the note is “R2, 33 nM kallikrein”, the “output titre” value is on record as 5.3e5. The “output titre” value (R3, 0 nM kallikrein) came to 5.0e4. For the same molecule, where the note is “R3, 9.75 nM kallikrein”, the “output titre” value turned out to be 5.0e5.

B3: CelfProcM10: C-terminal leaderA4.3 ProcM enzyme-leader fusion, 10-pair linker, used to modify leader-free SynLib1 (protein)
chain: MSEEQLKAFIAKVQADTSLQEQLKAEGADVVAIAKAAGFTITTEDLNSHRQNLTDDELEGVAGGSASGSGSGSAMESPSSWKTSWLAAIAPDEPHKFDRRLEWDELSEENFFAALNSEPASLEEDDPCFEEALQDALEALKAAWDLPLLPVDNNLNRPFVDVWWPIRCHSAESLRQSFVSDSAGLADEIFDQLADSLLDRLCALGDQVLWEAFNKERTPGTMLLAHLGAAGDGSGPPVREHYERFIQSHRRNGLAPLLKEFPVLGRLIGTVLSLWFQGSVEMLQRICADRTVLQQCFAIPCGHHLKTVKQGLSDPHRGGRAVAVLEFADPNSTANSSMHVVYKPKDMAVDAAYQATLADLNTHSDLSPLRTLAIHNGNGYGYMEHVVHHLCANDKELTNFYFNAGRLTALLHLLGCTDCHHENLIACGDQLLLIDTETLLEADLPDHISDASSTTAQPKPSSLQKQFQRSVLRSGLLPQWMFLGESKLAIDISALGMSPPNKPERIALGWLGFNSDGMMPGRVSQPVEIPTSLPVGIGEVNPFDRFLEDFCDGFSMQSEALIKLRNRWLDVNGVLAHFAGLPRRIVLRATRVYFTIQRQQLEPTALRSPLAQALKLEQLTRSFLLAESKPLHWPIFAAEVKQMQHLDIPFFTHLIDADALQLGGLEQELPGFIQTSGLAAAYERLRNLDTDEIAFQLRLIRGAVEARELHTTPESSPTLPPPATPEALMSSSAETSLEAAKRIAHRLLELAIRDSQGQVEWLGMDLGADGESFSFGPVGLSLYGGSIGIAHLLQRLQAQQVSLMDADAIQTAILQPLVGLVDQPSDDGRRRWWRDQPLGLSGCGGTLLALTLQGEQAMANSLLAAALPRFIEADQQLDLIGGCAGLIGSLVQLGTESALQLALRAGDHLIAQQNEEGAWSSSSSQPGLLGFSHGTAGYAAALAHLHAFSADERYRTAAAAALAYERARFNKDAGNWPDYRSIGRDSDSDEPSFMASWCHGAPGIALGRACLWGTALWDEECTKEIGIGLQTTAAVSSVSTDHLCCGSLGLMVLLEMLSAGPWPIDNQLRSHCQDVAFQYRLQALQRCSAEPIKLRCFGTKEGLLVLPGFFTGLSGMGLALLEDDPSRAVVSQLISAGLWPTESASGSGSGSGSTSGSGSGSAMSEEQLKAFIAKVQADTSLQEQLKAEGADVVAIAKAAGFTITTEDLNSHRQNLTDDELEGVAGG
modifications: Enzyme-Leader-Fusion
In the case of B3, the “difference in titre” value is 6.5 fold. Besides, under “R1, 100 nM kallikrein”, the “output titre” value is given as 4.2e6. In addition, the “output titre” value (R2, 33 nM kallikrein) stood at 2.9e5. The “output titre” value (R3, 0 nM kallikrein) is given as 5.3e4. The “output titre” value (R3, 9.75 nM kallikrein) amounted to 3.4e5.
